Legend:
[1] = molecular target: T1, Cynomolgus folate receptor alpha (cynomolgus monkey, UniProt P15328 25-234 (human entry)); assay: FACS, CHO-cFOLR1 cells
T1 construct: Stably expressed on CHO cells (CHO-cFOLR1); also called cynomolgus FOLR1; CHO-cFOLR1

[2] = molecular target: T2, Human folate receptor alpha (hFOLR1) (human, UniProt P15328 25-234); assay: FACS, CHO-hFOLR1 cells
T2 construct: Stably expressed on CHO cells (CHO-hFOLR1) for flow cytometry; endogenous on FOLR1-positive KB and Igrov1 cells in the killing assay; also called human FOLR1; FolRα
T2 sequence (P15328 25-234 limits assumed): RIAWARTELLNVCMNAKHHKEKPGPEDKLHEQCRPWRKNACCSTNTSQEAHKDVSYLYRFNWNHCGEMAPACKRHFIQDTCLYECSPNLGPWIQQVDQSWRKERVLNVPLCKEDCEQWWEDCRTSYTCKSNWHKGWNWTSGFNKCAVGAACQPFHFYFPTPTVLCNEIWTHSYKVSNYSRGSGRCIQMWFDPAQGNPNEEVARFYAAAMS
Protocol: CHO cells were transfected to stably express human (CHO-hFOLR1), cynomolgus (CHO-cFOLR1), or mouse (CHO-mFOLR1) target molecule FOLR1 on the cell surface. Parental CHO cells were used as a negative control to determine background binding levels. Parental CHO and stably transfected CHO-hFOLR1, CHO-cFOLR1, and CHO-mFOLR1 cells were cultured in Ham's F-12: high glucose DMEM (50:50) (Corning, Cellgro-Mediatech) supplemented with 10% heat-inactivated fetal bovine serum (Corning, Cellgro-Mediatech), 1% Penicillin/Streptomycin (Corning, Cellgro-Mediatech) and 2 mmol/L-glutamax (Life Technology).
A mixture of fluoresecent-labeled parental CHO cells and unlabeled CHO-hFOLRlcells were prepared as follows. Parental CHO cells were washed twice in PBS and incubated in PBS containing with 1 nM CellTrace™ Oregon Green488® (Life Technologies) at 37° C. for 30 minutes. Labeled parental CHO cells were then washed 2× with Ham's F-12 media and 2× with FACS buffer (PBS with 1% bovine serum albumin). Unlabeled CHO-hFOLR1 cells were similarly washed and prepared. Labeled parental CHO and unlabeled CHO-hFOLR1 cells were combined at 1:1 ratio and seeded at 50 μL per well (200,000 cells per well) in 96 well polypropylene plates. Cells were mixed with 50 μL of test antibodies (i.e., anti-FOLR1 variants) serially diluted in FACS buffer and incubated on ice for 60 mins. Cells were washed with FACS buffer and incubated on ice for 60 mins with 100 μL FACS buffer containing 2.5 μg/mL R-Phycoerythrin-conjugated goat anti-Human IgG (Jackson ImmunoResearch Laboratories, West Grove, Pa.). Cells were washed twice with FACS buffer, fixed in 2% paraformaldehyde in PBS (Santa Cruz Biotechnology; Dallas, Tex.) for 10 mins on ice in the dark, and analyzed using the BD LSR II Flow Cytometer (BD Biosciences; San Jose, Calif.). Data were analyzed using FlowJo® software (FlowJo, LLC; Ashland, Oreg.) to determine mean fluorescence intensities. Binding constants were calculated using the statistical software, GraphPad Prism (GraphPad Software; La Jolla, Calif.) using the nonlinear regression equation, one site-specific binding with Hill slope. Secondary antibody alone was used as a control, in addition to measuring non-specific antibody binding to CHO parental cells.

[3] = molecular target: T3, Murine folate receptor alpha (mouse, UniProt P35846 25-232); assay: FACS, CHO-mFOLR1 cells
T3 construct: Stably expressed on CHO cells (CHO-mFOLR1); also called mouse FOLR1; CHO-mFOLR1
T3 sequence (P35846 25-232 limits assumed): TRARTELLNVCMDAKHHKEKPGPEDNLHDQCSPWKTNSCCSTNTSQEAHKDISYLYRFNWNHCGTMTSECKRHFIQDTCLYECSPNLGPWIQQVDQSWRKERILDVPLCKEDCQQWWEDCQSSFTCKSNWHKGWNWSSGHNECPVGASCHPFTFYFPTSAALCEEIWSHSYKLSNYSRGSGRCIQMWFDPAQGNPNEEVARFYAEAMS

T1 sequence (P15328 other isoform, or with tags, fused parts or gaps limits assumed): as the sequence (P15328 25-234 limits assumed) above, with I2T, W4R, R37K, Q117R, A146P, H171Y counted along it

B1: SRP1848-F08 (antibody, V domains shown)
VH: EVQLVESGGGLVQPGGSLRLSCAAGGFNISNHSIHWVRQAPGKGVEWVGEIYPVDGITDYADSVKGRFTISADTSKNTAYLRMNSLRAEDTAVYYCARGSWYWQSGYSYYLDYWGQGTLVTVSS
VL: not shown
notes: VH/VL only; Fc-bearing IgG format with trastuzumab LC, HIS/FLAG-tagged, cell-free expressed; constant regions not tied; also called Antibody 43
Bmax [1]: 21000 MFI | Bmax [2]: 26500 MFI

B2: SRP1848-D07 (antibody, V domains shown)
VH: EVQLVESGGGLVQPGGSLRLSCAASGFNISKYYIHWVRQAPGKGLEWVGGISPNDGYTDYADSVKGRFAISADTSKNTAYLQMNSLRAEDTAVYYCARGFWAWRSGYGYYLDYWGQGTLVTVSS
VL: not shown
notes: VH/VL only; Fc-bearing IgG format with trastuzumab LC, HIS/FLAG-tagged, cell-free expressed; constant regions not tied; also called Antibody 28
Bmax [1]: 24300 MFI | Bmax [2]: 25700 MFI

B3: SRP1848-D09 (antibody, V domains shown)
VH: EVQLVESGGGLVQPGGSLRLSCAASGFNISNYYIHWVRQAPGKGLEWVGGISPNDGYTDYADSVKGRFTISADTSKNTAYLQMNSLRAEDTAVYYCARGSWSWRHGYGYYLDYWGQGTLVTVSS
VL: not shown
notes: VH/VL only; Fc-bearing IgG format with trastuzumab LC, HIS/FLAG-tagged, cell-free expressed; constant regions not tied; also called Antibody 29
Bmax [1]: 21300 MFI | Bmax [2]: 25000 MFI

B4: SRP1848-B07 (antibody, V domains shown)
VH: EVQLVESGGGLVQPGGSLRLSCAASGFNISRFYIHWVRQAPGKGLEWVGGISPYDGFTDYADSVKGRFTISADTSKNTAYLQMNSLRAEDTAVYYCARGSWSWPAGYGYYQDYWGQGTLVTVSS
VL: not shown
notes: VH/VL only; Fc-bearing IgG format with trastuzumab LC, HIS/FLAG-tagged, cell-free expressed; constant regions not tied; also called Antibody 14
Bmax [1]: 25500 MFI | Bmax [2]: 25600 MFI

B5: SRP1848-A07 (antibody, V domains shown)
VH: EVQLVESGGGLVQPGGSLRLSCAASGFNIGYHSIHWVRQAPGKGLEWVGEIFPVDGTTDYADSVKGRFTISADTSKNTAYLHMNSLRAEDTAVYYCARGFWAWRSGYGYYLDYWGQGTLVTVSS
VL: not shown
notes: VH/VL only; Fc-bearing IgG format with trastuzumab LC, HIS/FLAG-tagged, cell-free expressed; constant regions not tied; also called Antibody 5
Bmax [1]: 23600 MFI | Bmax [3]: 9650 MFI | Bmax [2]: 29200 MFI

B6: SRP1848-A09 (antibody, V domains shown)
VH: EVQLVESGGGLVQPGGSLRLSCAASGFNIRKQSIHWVRQAPGKGLEWVGSIFPNDGTTDYADSVKGRFTISADTSKNTAYLQVNSLRAEDTAVYYCARGSWFWRSGYGYFLEYWGQGTLVTVSS
VL: not shown
notes: VH/VL only; Fc-bearing IgG format with trastuzumab LC, HIS/FLAG-tagged, cell-free expressed; constant regions not tied; also called Antibody 7
Bmax [1]: 20200 MFI | Bmax [3]: 7990 MFI | Bmax [2]: 28900 MFI

B7: SRP1848-C01 (antibody, V domains shown)
VH: EVQLVESGGGLVQPGGSLRLSCAASGFNIGNSYIHWVRQAPGKGLEWVGGVTPNDGYTDYADSVKGRFTISADTSKNTTYLQMNSLRAEDTAVYYCARGSWFWRAGYGYYLDYWGQGALVTVSS
VL: not shown
notes: VH/VL only; Fc-bearing IgG format with trastuzumab LC, HIS/FLAG-tagged, cell-free expressed; constant regions not tied; also called Antibody 18
Bmax [1]: 25900 MFI | Bmax [3]: 1370 MFI | Bmax [2]: 28500 MFI

B8: SRP1848-F06 (antibody, V domains shown)
VH: EVQLVESGGGLVQPGGSLRLSCAASGFNISLSYIHWVRQAPGKGLEWVGGISPIDGNTDYADSVKGRFTISADTSKNTAYLQMNSLRAEDTAVYYCARGFWAWRSGYGYYLDYWGQGTLVTVSS
VL: not shown
notes: VH/VL only; Fc-bearing IgG format with trastuzumab LC, HIS/FLAG-tagged, cell-free expressed; constant regions not tied; also called Antibody 41
Bmax [1]: 26500 MFI | Bmax [2]: 25600 MFI

B9: SRP1848-E01 (antibody, V domains shown)
VH: EVQLVESGGGLVQPGGSLRLSCAASGFNITNKYIHWVRQAPGKGLEWVGGITPFDGFTDYADSVKGRFTISADTSKNTAYLQMNSLRAEDTAVYYCARGSWSWPAGYGYYQDYWGQGTLVTVSS
VL: not shown
notes: VH/VL only; Fc-bearing IgG format with trastuzumab LC, HIS/FLAG-tagged, cell-free expressed; constant regions not tied; also called Antibody 31
Bmax [1]: 22400 MFI | Bmax [2]: 26400 MFI

B10: SRP1848-B01 (antibody, V domains shown)
VH: EVQLVESGGGLVQPGGSLRLSCAASGFNIRNYSIHWVRQAPGKGLEWVGEIYPVDGITDYADSVKGRFTISADTSKNTAYLQMNSLRAEDTAVYYCARGFWSWPSGYSYFLDYWGQGTLVTVSS
VL: not shown
notes: VH/VL only; Fc-bearing IgG format with trastuzumab LC, HIS/FLAG-tagged, cell-free expressed; constant regions not tied; also called Antibody 9
Bmax [1]: 23900 MFI | Bmax [3]: 3400 MFI | Bmax [2]: 26600 MFI

B11: SRP1848-B11 (antibody, V domains shown)
VH: EVQLVESGGGLVQPGGSLRLSCAASGFNIGNNSIHWVRQAPGKGLEWVGDISPIDGFTDYADSVKGRFTISADTSKNTAYLQMNSLRAEDTAVYYCARGSWSWRAGYGYYLDYWGQGTLVTVSS
VL: not shown
notes: VH/VL only; Fc-bearing IgG format with trastuzumab LC, HIS/FLAG-tagged, cell-free expressed; constant regions not tied; also called Antibody 17
Bmax [1]: 22900 MFI | Bmax [3]: 1630 MFI | Bmax [2]: 28400 MFI

B12: SRP1848-B10 (antibody, V domains shown)
VH: EVQLVESGGGLVQPGGSLRLSCAASGFNTTTKSIHWVRQAPGKGLEWVGEIYPRDGITDYADSVKGRFTISADTSKNTAYLQMNSLRAEDTAVYYCARGGWHWRSGYSYYLDYWGQGTLVTVSS
VL: not shown
notes: VH/VL only; Fc-bearing IgG format with trastuzumab LC, HIS/FLAG-tagged, cell-free expressed; constant regions not tied; also called Antibody 16
Bmax [1]: 21300 MFI | Bmax [3]: 2460 MFI | Bmax [2]: 28200 MFI
